Assays:
[1] = molecular target: P-Selectin ligand on HL60 cells and human neutrophils (human); assay: flow cytometry, staining of HL60 cells
[2] = molecular target: P-Selectin-IgG REKDV mutant (human) (UniProt P16109); assay: capture ELISA
PE-1 chimera (human) = PE-1 chimera (human) (UniProt P16581); assay: capture ELISA, mAb coated
[3] = molecular target: P-Selectin-IgG chimera (human) (UniProt P16109); assay: capture ELISA, mAb coated
[4] = molecular target: E-Selectin-IgG chimera (wild type) (human) (UniProt P16581); assay: capture ELISA, mAb coated

Substance	% cells positive [1] [%]	MFI [1] [MFI]	percent of control P-Selectin-IgG binding [2] [%]	O.D. 450 (PE-1 chimera (human)) [O.D. 450]	O.D. 450 [3] [O.D. 450]	O.D. 450 [4] [O.D. 450]
P-Selectin-IgG chimera (from UniProt P16109) (Fc fusion)	97	416	–	–	–	–
mAb AC 1.2 (antibody)	–	–	70	0.1	2.8	0
mAb AK-6 (CLB-thromb/6) (antibody)	–	–	70	1.7	1.3	0

Reference: patent US5593882
